Assays:
EBOV soluble GP (sGP) = molecular target: T1, EBOV soluble GP (sGP) (Ebola virus (EBOV), UniProt P60170 33-324); test: ELISA
T1 sequence: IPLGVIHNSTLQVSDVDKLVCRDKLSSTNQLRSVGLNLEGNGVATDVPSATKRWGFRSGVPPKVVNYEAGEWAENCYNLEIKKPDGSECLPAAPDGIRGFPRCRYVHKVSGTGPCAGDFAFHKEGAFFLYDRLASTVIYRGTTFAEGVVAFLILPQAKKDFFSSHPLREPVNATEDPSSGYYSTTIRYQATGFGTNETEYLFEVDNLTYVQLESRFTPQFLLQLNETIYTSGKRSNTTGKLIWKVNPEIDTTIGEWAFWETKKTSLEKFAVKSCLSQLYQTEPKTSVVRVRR

SUDV VLP = molecular target: T2, SUDV VLP (Sudan virus (SUDV), UniProt Q66814 33-676); test: ELISA
T2 sequence: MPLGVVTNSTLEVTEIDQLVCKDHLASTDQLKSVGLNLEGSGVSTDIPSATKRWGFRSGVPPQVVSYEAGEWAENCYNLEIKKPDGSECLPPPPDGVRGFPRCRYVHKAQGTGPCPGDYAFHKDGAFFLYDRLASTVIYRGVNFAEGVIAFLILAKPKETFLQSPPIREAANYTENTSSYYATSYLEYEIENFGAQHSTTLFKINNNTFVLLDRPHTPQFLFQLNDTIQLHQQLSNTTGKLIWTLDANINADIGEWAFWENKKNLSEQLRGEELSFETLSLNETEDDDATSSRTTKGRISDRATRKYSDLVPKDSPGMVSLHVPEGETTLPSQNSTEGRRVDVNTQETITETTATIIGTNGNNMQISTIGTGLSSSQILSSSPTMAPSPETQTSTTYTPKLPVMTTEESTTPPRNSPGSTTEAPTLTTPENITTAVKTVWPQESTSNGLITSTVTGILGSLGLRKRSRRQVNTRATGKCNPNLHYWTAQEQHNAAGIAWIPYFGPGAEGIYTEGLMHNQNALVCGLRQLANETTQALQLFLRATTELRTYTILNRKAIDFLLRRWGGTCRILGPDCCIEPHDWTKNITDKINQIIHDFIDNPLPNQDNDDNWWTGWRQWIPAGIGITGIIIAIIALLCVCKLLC

EBOV VLP = molecular target: T3, EBOV VLP (Ebola virus (EBOV), UniProt Q05320 33-676); test: ELISA
T3 sequence: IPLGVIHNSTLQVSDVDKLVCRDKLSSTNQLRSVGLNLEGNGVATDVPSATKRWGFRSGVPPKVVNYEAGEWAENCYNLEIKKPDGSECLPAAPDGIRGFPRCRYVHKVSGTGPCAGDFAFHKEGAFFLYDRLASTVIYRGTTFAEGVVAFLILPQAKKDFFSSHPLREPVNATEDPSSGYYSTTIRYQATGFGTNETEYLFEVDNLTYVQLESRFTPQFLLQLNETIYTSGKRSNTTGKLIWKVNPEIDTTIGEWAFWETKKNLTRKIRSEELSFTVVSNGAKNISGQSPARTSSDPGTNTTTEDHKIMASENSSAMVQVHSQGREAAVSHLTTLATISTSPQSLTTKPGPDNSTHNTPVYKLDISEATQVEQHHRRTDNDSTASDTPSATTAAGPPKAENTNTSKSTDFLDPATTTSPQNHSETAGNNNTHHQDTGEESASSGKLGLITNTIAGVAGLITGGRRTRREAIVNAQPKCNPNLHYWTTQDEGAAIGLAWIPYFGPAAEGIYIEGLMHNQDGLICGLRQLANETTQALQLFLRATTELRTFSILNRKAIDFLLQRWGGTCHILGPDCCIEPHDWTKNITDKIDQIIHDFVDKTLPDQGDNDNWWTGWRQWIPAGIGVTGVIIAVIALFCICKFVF

MARV VLP = molecular target: T4, MARV VLP (Marburg virus (MARV), UniProt P35253 19-681); test: ELISA
T4 sequence: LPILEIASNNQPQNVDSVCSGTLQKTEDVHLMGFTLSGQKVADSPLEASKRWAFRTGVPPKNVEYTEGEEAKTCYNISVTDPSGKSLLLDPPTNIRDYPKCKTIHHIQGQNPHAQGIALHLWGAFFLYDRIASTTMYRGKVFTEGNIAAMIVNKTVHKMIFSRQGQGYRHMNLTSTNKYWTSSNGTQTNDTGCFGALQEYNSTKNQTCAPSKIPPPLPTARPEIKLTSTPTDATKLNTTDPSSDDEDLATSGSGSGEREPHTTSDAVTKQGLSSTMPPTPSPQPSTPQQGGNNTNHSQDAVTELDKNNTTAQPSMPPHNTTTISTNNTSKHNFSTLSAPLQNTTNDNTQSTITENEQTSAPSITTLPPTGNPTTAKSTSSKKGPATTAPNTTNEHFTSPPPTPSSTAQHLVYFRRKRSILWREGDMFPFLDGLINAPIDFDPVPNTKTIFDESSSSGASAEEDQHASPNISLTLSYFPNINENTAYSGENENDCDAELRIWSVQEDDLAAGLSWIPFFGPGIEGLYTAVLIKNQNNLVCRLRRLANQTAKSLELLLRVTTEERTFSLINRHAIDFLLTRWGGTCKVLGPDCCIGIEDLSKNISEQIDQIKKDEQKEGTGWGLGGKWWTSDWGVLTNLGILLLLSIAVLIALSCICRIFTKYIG

MARV (Musoke strain) GP = molecular target: T5, MARV (Musoke strain) GP (Marburg virus (MARV), Musoke strain, UniProt P35253 19-648); test: GP ELISA, purified mAb
T5 sequence: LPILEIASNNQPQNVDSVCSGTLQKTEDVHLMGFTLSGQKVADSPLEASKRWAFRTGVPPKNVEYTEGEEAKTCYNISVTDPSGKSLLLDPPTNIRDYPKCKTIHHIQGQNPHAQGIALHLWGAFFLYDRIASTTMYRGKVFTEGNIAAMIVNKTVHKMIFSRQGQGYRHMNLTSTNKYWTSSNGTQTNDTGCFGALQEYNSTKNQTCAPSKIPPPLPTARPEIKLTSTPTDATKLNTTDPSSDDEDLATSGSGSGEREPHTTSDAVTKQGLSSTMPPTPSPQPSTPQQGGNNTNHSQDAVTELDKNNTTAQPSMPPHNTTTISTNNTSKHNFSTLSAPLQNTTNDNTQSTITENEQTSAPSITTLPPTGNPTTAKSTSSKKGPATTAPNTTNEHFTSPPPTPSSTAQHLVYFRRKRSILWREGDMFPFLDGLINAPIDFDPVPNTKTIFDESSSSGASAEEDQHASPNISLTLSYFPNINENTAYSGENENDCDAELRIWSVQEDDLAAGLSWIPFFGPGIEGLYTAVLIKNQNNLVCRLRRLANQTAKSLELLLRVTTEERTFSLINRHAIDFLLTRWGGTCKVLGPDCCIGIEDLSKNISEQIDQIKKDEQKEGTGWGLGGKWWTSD

EBOV GPcl = molecular target: T6, EBOV GPcl (Ebola virus (EBOV), UniProt Q05320 33-200; Q05320 502-632); test: ELISA
T6 sequence 1: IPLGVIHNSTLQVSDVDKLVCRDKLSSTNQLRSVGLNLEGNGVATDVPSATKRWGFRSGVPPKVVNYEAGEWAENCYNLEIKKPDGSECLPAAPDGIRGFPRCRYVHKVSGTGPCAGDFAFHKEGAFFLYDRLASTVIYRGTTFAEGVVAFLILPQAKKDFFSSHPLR
T6 sequence 2: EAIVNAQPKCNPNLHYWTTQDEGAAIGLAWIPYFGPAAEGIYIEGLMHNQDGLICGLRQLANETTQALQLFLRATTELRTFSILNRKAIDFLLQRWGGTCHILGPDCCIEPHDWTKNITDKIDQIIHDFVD

B1: FVM02P (antibody, V domains shown)
VH: EVQLVESGGGLVQPGGSLRLSCAASGFTGFTFSDYAFYWVRQAPGKGLEWVGFIRGKAYGGTADYAASVKGRFTISRDNSKNTAYLQMSSLKTEDSAVYYCTSQGVTVATPYHWGQGVLVTVSS
VL: DIVLTQSPLSLPVTPGEPASISCRSSQSLLHSGGKTYLYWYLQKPGQSPQLLIHEVSNRASGVPDRFSGSGSGTDFTLKISRVEAEDVGVYYCMQGIQLPLTFGGGTKVEIKR
binding result (EBOV soluble GP (sGP)): no binding
EC50 (SUDV VLP): 0.351 nM
EC50 (EBOV VLP): 0.489 nM
EC50 (MARV VLP): 7.73 nM
EC50 (MARV (Musoke strain) GP): 1 µg/mL

B2: FVM03 (antibody, V domains shown)
VH: QVQLQESGPVLVKPSETLSLTCAVSGYSISSAYAWSWIRQPPGKGLEWVGYVGSSSDYNPSLKSRVTISRDTSKNRIFLNLRSLTAADTAVYYCARDRANNSMDVWGRGVLVTVSS
VL: EIVLTQSPDSLGVSLGERVTINCKSSQSLLYSSNNKNYLAWYQQKPGQAPKLLIYWASTRESGVPNRFSGSGSGTDFTLTISGLQAEDVAVYYCQQYYSTPLTFGQGTKVEIKR
EC50 (MARV VLP): 0.793 nM

B3: FVM09 (antibody, V domains shown)
VH: EVQLVQSGAEVKRPGESLTISCKTSGYSFTDSWVAWVRQMPGKGLEWLGSIYPGDSETKYNPSFQGHVTISADKSVTTTYLKWSSLKASDTATYYCVKGSETWGQGVLVTVSS
VL: QLVLTQPASLSASPGASASLTCTFSGGINVAGYNILWYQQKAGSPPRYLLRYKSDSTKDQGSGVPSRFSGSKDASANTGILRISGLQSEDEADYYCAIGHSSGWIFGGGTRLTVL
binding result (EBOV GPcl): no binding
EC50 (SUDV VLP): 21.3 nM
EC50 (EBOV VLP): 24.2 nM
binding result (MARV (Musoke strain) GP): no binding

B4: FVM32 (antibody, V domains shown)
VH: QVQLVQSGAEVKRPGESLRISCKTSGYSFTDSWVAWVRQMPGKGLEWLGSIYPGDSDTRYSPSFQGQVTISADKSITTAYLKWSSLKASDTATYYCVKGSETWGQGVLVTVSS
VL: QPVLTQPASLSASPGASASLTCTFNGGITVPGYDILWYQQKSGSPPRYLLRYKSDSTKDQGSGVPSRFSGSKDASTNTGILRISGLQSEDEADYYCAIGHSSGWIFGGGTRLTVL
EC50 (SUDV VLP): 0.187 nM
EC50 (EBOV VLP): 0.66 nM

B5: FVM13 (antibody, V domains shown)
VH: EVQLVQSGAEVKRPGESLKISCKTSGYTFTSSWISWVRQMPGKGLEWLGSIYPGDSDTRYNPSFQGHVTISADTSIITTHLQWSSLKASDTATYYCVKGSETWGQGVLVTVSS
VL: KPMLTQPTSLSASPGASASLTCTFSGGINVAGYNILWYQQKAGSPPRYLLRYKSDSTKDQGSGVPSRFSGSKDASANTGILRISGLQSEDEADYYCAIGHSSGWIFGGGTRLTVL
EC50 (SUDV VLP): 0.144 nM
EC50 (EBOV VLP): 0.198 nM
binding result (MARV (Musoke strain) GP): no binding

B6: FVM20 (antibody, V domains shown)
VH: EVQLVESGAEVKRPGESLTISCKTSGYSFTGSWISWVRQMPGKGLEWLGSIYPGDSETKYNPSFQGHVTISADKSVTTTYLKWSSLKASDTATYYCVKGSETWGQGVLVTVSS
VL: NFMLTQSASLSASPGASASLTCTFSGGINVAGYHIFWYQQNPGSPPRYLLRYKSDSEKDQGSGVPSRFSGSKDASANTGILRISGLQSEDEADYYCAIGHSSGWIFGGGTRLTVL
EC50 (SUDV VLP): 32.9 nM
EC50 (EBOV VLP): 1.29 nM
binding result (MARV (Musoke strain) GP): no binding

B7: FVM01P (antibody, V domains shown)
VH: QVQLQESGPGLVKPSETLSLTCTVSGASISNYRWNWIRQPPGKGLEWIGEINGYSGSTNYNPSLKSRVTISKDASKNQFSLKLTSVTAADTAVYYCPIIGGFTLEWFDVWGPGVLVTVSS
VL: DVVLTQSPSSLSASVGDRVTITCRASQGIRNYLNWYQQKPRKAPKLLIYAASSLQSGVPSRFSGSGSGTEFTLTISSLQAEDFATYYCLQGYRTPFTFGPGTKLDIKR
EC50 (SUDV VLP): 0.319 nM
EC50 (EBOV VLP): 0.459 nM
binding result (MARV (Musoke strain) GP): no binding
